This experiment concerns the target IL2 receptors (on the HEK IL-2 reporter cell line) (human) (UniProt P01589). In words: cell-based or functional assay.
Chain of IL2 receptors (on the HEK IL-2 reporter cell line) (human) (P01589 22-272, chain 1 of 3): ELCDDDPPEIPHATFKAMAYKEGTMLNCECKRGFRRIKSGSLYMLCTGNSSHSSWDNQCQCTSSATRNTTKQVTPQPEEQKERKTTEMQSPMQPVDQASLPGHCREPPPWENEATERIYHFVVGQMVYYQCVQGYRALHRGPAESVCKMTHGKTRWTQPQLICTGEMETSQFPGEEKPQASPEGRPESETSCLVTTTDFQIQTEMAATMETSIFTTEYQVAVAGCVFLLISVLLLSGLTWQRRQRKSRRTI
Chain of IL2 receptors (on the HEK IL-2 reporter cell line) (human) (P14784 27-551, chain 2 of 3, further chain): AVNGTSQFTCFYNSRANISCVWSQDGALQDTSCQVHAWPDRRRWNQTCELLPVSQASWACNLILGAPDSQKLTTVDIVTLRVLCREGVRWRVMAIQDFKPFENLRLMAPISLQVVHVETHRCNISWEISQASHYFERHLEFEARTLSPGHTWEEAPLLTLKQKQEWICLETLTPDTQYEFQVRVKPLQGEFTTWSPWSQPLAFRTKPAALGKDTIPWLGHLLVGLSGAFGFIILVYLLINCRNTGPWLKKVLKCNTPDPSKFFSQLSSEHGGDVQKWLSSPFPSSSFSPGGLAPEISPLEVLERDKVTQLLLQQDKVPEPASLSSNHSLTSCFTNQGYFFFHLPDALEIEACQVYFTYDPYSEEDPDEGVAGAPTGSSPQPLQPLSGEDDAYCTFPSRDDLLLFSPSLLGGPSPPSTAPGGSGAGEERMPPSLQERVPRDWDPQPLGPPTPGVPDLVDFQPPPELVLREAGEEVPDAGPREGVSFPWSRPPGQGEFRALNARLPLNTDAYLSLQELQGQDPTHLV
Chain of IL2 receptors (on the HEK IL-2 reporter cell line) (human) (P31785 23-369, chain 3 of 3, further chain): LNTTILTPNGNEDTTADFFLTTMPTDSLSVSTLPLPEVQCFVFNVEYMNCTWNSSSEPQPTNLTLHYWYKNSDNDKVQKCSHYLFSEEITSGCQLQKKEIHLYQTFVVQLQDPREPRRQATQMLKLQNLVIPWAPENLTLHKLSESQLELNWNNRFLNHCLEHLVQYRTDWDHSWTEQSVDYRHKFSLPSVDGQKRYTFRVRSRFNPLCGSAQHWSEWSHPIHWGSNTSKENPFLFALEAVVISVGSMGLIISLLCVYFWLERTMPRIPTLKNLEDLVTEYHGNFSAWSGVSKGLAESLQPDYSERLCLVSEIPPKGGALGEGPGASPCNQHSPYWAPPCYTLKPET
Take “Cas9-2xNLS-mouse WT IL2 (from UniProt P04351 21-169)”: the IL-2 EC50 (nM) (approx.); SEAP induction in the HEK IL-2 reporter cell line, OD was 0.34 nM.

Substance IL2(SK)-SpyTag (ligand) showed an IL-2 EC50 (nM) (approx.); SEAP induction in the HEK IL-2 reporter cell line, OD of 0.037 nM.

“recombinant mouse IL-2 (from UniProt P04351 21-169) (ligand)” yielded an IL-2 EC50 (nM) (approx.); SEAP induction in the HEK IL-2 reporter cell line, OD of 0.0057 nM.

As for “Cas9-2xNLS-IL2(superkine) (from UniProt P60568 21-153)”, the IL-2 EC50 (nM) (approx.); SEAP induction in the HEK IL-2 reporter cell line, OD is 0.87 nM.

In the case of “SpyCatcher-Cas9(WT)-2xNLS:Spytag-IL2(SK) conjugate (from UniProt Q99ZW2 2-1368)”, the IL-2 EC50 (nM) (approx.); SEAP induction in the HEK IL-2 reporter cell line, OD was found to be 0.0095 nM.
